Laboratory results as given in article PMC3894216 (PLoS Pathogens, 2014).

Biological target: the molecule itself
Assay: SDS-stable oligomer band of the purified protein

B1: GST-CNF1 N-terminal fragment (aa 1-342) (domain or fragment)
chain: MGNQWQQKYLLEYNELVSNFPSPERVVSDYIKNCFKTDLPWFSRIDPDNAYFICFSQNRSNSRSYTGWDHLGKYKTEVLTLTQAALINIGYRFDVFDDANSSTGIYKTKSADVFNEENEEKMLPSEYLHFLQKCDFAGVYGKTLSDYWSKYYDKFKLLLKNYYISSALYLYKNGELDEREYNFSMNALNRSDNISLLFFDIYGYYASDIFVAKNNDKVMLFIPGAKKPFLFKKNIADLRLTLKELIKDSDKQQLLSQHFSLYSRQDGVSYAGVNSVLHAIENDGNFNESYFLYSNKTLSNKDVFDAIAISVKKRSFSDGDIVIKSNSEAQRDYALTILQTIL
stoichiometry N: 4
